Source: article PMC7494816, “Stoichiometry of Rtt109 complexes with Vps75 and histones H3-H4” (Life Science Alliance, 2020)

B1: Vps75 (Saccharomyces cerevisiae), individually expressed and purified (natural protein, UniProt P53853 1-264, looked up)
chain: MMSDQENENEHAKAFLGLAKCEEEVDAIEREVELYRLNKMKPVYEKRDAYIDEIAEFWKIVLSQHVSFANYIRASDFKYIDTIDKIKVEWLALESEMYDTRDFSITFHFHGIEGDFKEQQVTKVFQIKKGKDDQEDGILTSEPVPIEWPQSYDSINPDLIKDKRSPEGKKKYRQGMKTIFGWFRWTGLKPGKEFPHGDSLASLFSEEIYPFCVKYYAEAQRDLEDEEGESGLSADGDSEDDDGSLGEVDLPLSDEEPSSKKRKV
notes: Vps75, histone chaperone, Saccharomyces cerevisiae; also called Vps75 dimer; Vps75 tetramer; source: individually expressed and purified as previously described (Park et al, 2008)
B2: Vps75 co-expressed with his–Rtt109 from pRSFDuet-1 (natural protein, Saccharomyces cerevisiae, UniProt P53853 1-264, looked up)
chain: B1 chain
notes: Vps75, Saccharomyces cerevisiae; multiple cloning site 2 of pRSFDuet-1; source: E. coli Rosetta (DE3) pLysS, co-expressed with his–Rtt109, in lysate; co-purified (HisTrap, MonoQ)

Experiments:
[1] = biological target: the molecule itself; assay: AUC; sedimentation velocity, van Holde–Weischet analysis; 7.5 μM Vps75 with 0, 0.5 and 1.0 equivalent of Rtt109; 20 mM Tris pH 7.5, 300 mM NaCl, 0.5 mM TCEP, 20°C
[2] = biological target: the molecule itself; assay: AUC; sedimentation velocity, van Holde–Weischet analysis; 7.5 μM Vps75 with 0, 0.5 and 1.0 equivalent of Rtt109; 20 mM Tris pH 7.5, 150 mM NaCl, 0.5 mM TCEP, 20°C
[3] = biological target: T1, Xenopus laevis histones H3-H4 (wild type), refolded (Xenopus laevis, UniProt P84233 1-136; P62799 1-103); assay: AUC; sedimentation velocity; 0.5 or 1 equivalent of H3-H4 or H3DM-H4 titrated against Vps75–Rtt109 reconstituted at 2:2 or 2:1 (relative to 7.5 μM Vps75), with 2:2 mixes of Vps75 and histones for reference; 20 mM Tris pH 7.5, 150 mM NaCl, 0.5 mM TCEP, 20°C; conditions: both partners purified
T1 construct: histone H3, Xenopus laevis, wild type; histone H4, Xenopus laevis; One H3-H4 dimer is the unit used for concentrations and equivalents; it can form the (H3-H4)2 tetramer; also called (H3-H4)2 tetramer; H3-H4 dimer; source: bought unfolded: the Histone Source at Colorado State University

[4] = biological target: the molecule itself; assay: SEC-MALS; anion exchange peaks P1, P2, P3 of co-expressed, co-purified Vps75–Rtt109, 20 μM; Superdex 200 Increase 10/300 GL; 20 mM Tris–HCl pH 7.5, 300 mM NaCl, 0.5 mM TCEP

Binder	stoichiometry N [1]	stoichiometry N [2]	binding result [3]	stoichiometry N [4]
B1	2 chains of Vps75 (dimer)	4 chains of Vps75 (tetramer)	binds	
B2				2 chains of Vps75 (dimer)
